Test results from US20230037815A1.

Target: human CD19 on KILR Raji cells (UniProt P15391)
Assay: cell-based or functional assay

Sequence of human CD19 on KILR Raji cells (P15391 20-556 limits assumed): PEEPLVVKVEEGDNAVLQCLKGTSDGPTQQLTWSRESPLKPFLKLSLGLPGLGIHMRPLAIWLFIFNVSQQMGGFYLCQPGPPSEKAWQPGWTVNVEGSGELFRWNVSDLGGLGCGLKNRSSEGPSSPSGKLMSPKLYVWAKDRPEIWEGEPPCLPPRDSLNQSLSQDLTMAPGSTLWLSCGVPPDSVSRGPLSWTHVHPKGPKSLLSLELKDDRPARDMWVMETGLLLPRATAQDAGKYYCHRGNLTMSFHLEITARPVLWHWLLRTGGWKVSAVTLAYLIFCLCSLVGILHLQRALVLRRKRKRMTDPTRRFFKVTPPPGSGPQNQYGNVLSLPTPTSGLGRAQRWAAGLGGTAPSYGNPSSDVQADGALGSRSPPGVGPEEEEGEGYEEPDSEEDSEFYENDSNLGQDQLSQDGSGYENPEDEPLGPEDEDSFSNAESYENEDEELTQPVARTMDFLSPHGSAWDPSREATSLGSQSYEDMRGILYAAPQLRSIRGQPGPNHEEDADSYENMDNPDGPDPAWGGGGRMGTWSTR

Q: With blinatumomab (bispecific antibody) as the substance, how does the EC50 (pg/mL) of T cell-redirected killing of KILR Raji cells, +HSA read?
A: 10800 pg/mL

Q: What about the EC50 (pg/mL) of T cell-redirected killing of KILR Raji cells, -HSA of the same substance?
A: 2850 pg/mL
